Measurements from paper PMC3148490 (Cell metabolism, 2011).
Each block holds one binder with its values, some of them ahead of it.

How the values were obtained:
[1] = biological target: T1, t-SNAREs: heterodimeric complex of syntaxin-1 and SNAP-25, membrane-integrated in liposomes (UniProt P32851 1-288; P60881 1-206); experiment: co-sedimentation
[2] = biological target: T1, t-SNAREs: heterodimeric complex of …; experiment: co-sedimentation; remark: listed apart in the source

T1 sequence (P32851 whole entry, chain 1 of 2): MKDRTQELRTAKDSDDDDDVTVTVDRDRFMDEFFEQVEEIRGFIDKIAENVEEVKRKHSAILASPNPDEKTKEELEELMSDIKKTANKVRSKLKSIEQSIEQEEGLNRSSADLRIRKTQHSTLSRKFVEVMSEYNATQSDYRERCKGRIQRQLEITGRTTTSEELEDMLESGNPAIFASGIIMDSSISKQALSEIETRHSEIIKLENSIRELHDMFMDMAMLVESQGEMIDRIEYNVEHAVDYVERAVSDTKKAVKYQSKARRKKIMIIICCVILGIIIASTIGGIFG
T1 sequence (P60881 whole entry, chain 2 of 2): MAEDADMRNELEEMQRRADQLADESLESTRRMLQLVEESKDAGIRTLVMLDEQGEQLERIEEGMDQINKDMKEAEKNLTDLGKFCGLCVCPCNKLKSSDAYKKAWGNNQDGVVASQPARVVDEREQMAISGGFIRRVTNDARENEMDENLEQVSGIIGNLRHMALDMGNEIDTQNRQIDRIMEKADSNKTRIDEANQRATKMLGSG

Kd [1]: 177 nM
B1: MBP-DAMH (MBP fusion protein of the CAPS DAMH domain) (domain or fragment, UniProt Q62717 859-1073, looked up)
chain: ENVGRLITPAKKLEDTIRLAELVIEVLQQNEEHHAEAFAWWSDLMVEHAETFLSLFAVDMDAALEVQPPDTWDSFPLFQLLNDFLRTDYNLCNGKFHKHLQDLFAPLVVRYVDLMESSIAQSIHRGFERESWEPVNNGSGTSEDLFWKLDALQTFIRDLHWPEEEFGKHLEQRLKLMASDMIESCVKRTRIAFEVKLQKTSRSTDFRVPQSICTM

fold binding against syntaxin-1 or SNAP-25 alone [2]: 2 fold
B2: GST-DAMH (GST fusion protein of CAPS(859-1073), the DAMH domain) (domain or fragment, UniProt Q62717 859-1073, looked up)
chain: B1 chain
